Measured values taken from patent US20210139548A1 (published 2021).
*1 amine or outer side, *2 acyl side, *3 side chain or, on linkers, in order; H or OH if unused. Side-chain parts run from the residue outwards. The star is where a group is joined. C18 diacid = O=C(O)CCCCCCCCCCCCCCCCC(=O)*; γGlu = O=C(O)[C@H](CCC(=O)[*:2])N[*:1]; Isovaleryl = CC(C)CC(=O)*; AEEA = NCCOCCOCC(=O)O

T1: human neuropeptide Y2 receptor (human, UniProt P49146 1-381)
T1 construct: whole, on cells; also called hNPY2 receptor; hNPY2-R
T1 sequence (looked up): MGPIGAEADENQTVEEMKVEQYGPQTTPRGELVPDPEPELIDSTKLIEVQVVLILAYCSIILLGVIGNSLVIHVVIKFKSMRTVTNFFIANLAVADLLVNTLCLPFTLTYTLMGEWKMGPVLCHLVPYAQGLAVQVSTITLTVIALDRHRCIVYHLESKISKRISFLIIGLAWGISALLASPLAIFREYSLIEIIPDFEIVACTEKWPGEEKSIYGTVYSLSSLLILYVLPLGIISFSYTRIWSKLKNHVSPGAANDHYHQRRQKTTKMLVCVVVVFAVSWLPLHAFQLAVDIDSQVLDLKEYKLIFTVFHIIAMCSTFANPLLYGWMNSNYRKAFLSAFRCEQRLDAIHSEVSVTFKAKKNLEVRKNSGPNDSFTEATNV

B1: Compound 193 (peptide)
peptide: Isovaleryl-APEK([AEEA-AEEA-γGlu-C18 diacid])PEEDASEEEIQRYYVSLRHYYNWLTRQRY-NH2
SMILES: CC[C@H](C)[C@H](NC(=O)[C@H](CCC(=O)O)NC(=O)[C@H](CCC(=O)O)NC(=O)[C@H](CCC(=O)O)NC(=O)[C@H](CO)NC(=O)[C@H](C)NC(=O)[C@H](CC(=O)O)NC(=O)[C@H](CCC(=O)O)NC(=O)[C@H](CCC(=O)O)NC(=O)[C@@H]1CCCN1C(=O)[C@H](CCCCNC(=O)COCCOCCNC(=O)COCCOCCNC(=O)CC[C@H](NC(=O)CCCCCCCCCCCCCCCCC(=O)O)C(=O)O)NC(=O)[C@H](CCC(=O)O)NC(=O)[C@@H]1CCCN1C(=O)[C@H](C)NC(=O)CC(C)C)C(=O)N[C@@H](CCC(N)=O)C(=O)N[C@@H](CCCNC(=N)N)C(=O)N[C@@H](Cc1ccc(O)cc1)C(=O)N[C@@H](Cc1ccc(O)cc1)C(=O)N[C@H](C(=O)N[C@@H](CO)C(=O)N[C@@H](CC(C)C)C(=O)N[C@@H](CCCNC(=N)N)C(=O)N[C@@H](Cc1c[nH]cn1)C(=O)N[C@@H](Cc1ccc(O)cc1)C(=O)N[C@@H](Cc1ccc(O)cc1)C(=O)N[C@@H](CC(N)=O)C(=O)N[C@@H](Cc1c[nH]c2ccccc12)C(=O)N[C@@H](CC(C)C)C(=O)N[C@H](C(=O)N[C@@H](CCCNC(=N)N)C(=O)N[C@@H](CCC(N)=O)C(=O)N[C@@H](CCCNC(=N)N)C(=O)N[C@@H](Cc1ccc(O)cc1)C(N)=O)[C@@H](C)O)C(C)C
B2: Compound 197 (peptide)
peptide: Isovaleryl-APAK([AEEA-AEEA-γGlu-C18 diacid])PEADASPEELQRYYVELRHYYNWLTRQRY-NH2
SMILES: CC(C)CC(=O)N[C@@H](C)C(=O)N1CCC[C@H]1C(=O)N[C@@H](C)C(=O)N[C@@H](CCCCNC(=O)COCCOCCNC(=O)COCCOCCNC(=O)CC[C@H](NC(=O)CCCCCCCCCCCCCCCCC(=O)O)C(=O)O)C(=O)N1CCC[C@H]1C(=O)N[C@@H](CCC(=O)O)C(=O)N[C@@H](C)C(=O)N[C@@H](CC(=O)O)C(=O)N[C@@H](C)C(=O)N[C@@H](CO)C(=O)N1CCC[C@H]1C(=O)N[C@@H](CCC(=O)O)C(=O)N[C@@H](CCC(=O)O)C(=O)N[C@@H](CC(C)C)C(=O)N[C@@H](CCC(N)=O)C(=O)N[C@@H](CCCNC(=N)N)C(=O)N[C@@H](Cc1ccc(O)cc1)C(=O)N[C@@H](Cc1ccc(O)cc1)C(=O)N[C@H](C(=O)N[C@@H](CCC(=O)O)C(=O)N[C@@H](CC(C)C)C(=O)N[C@@H](CCCNC(=N)N)C(=O)N[C@@H](Cc1c[nH]cn1)C(=O)N[C@@H](Cc1ccc(O)cc1)C(=O)N[C@@H](Cc1ccc(O)cc1)C(=O)N[C@@H](CC(N)=O)C(=O)N[C@@H](Cc1c[nH]c2ccccc12)C(=O)N[C@@H](CC(C)C)C(=O)N[C@H](C(=O)N[C@@H](CCCNC(=N)N)C(=O)N[C@@H](CCC(N)=O)C(=O)N[C@@H](CCCNC(=N)N)C(=O)N[C@@H](Cc1ccc(O)cc1)C(N)=O)[C@@H](C)O)C(C)C
B3: Compound 195 (peptide)
peptide: Isovaleryl-APEK([AEEA-AEEA-γGlu-C18 diacid])PEEDASPEALQRYYVELRHYYNWLTRQRY-NH2
SMILES: CC(C)CC(=O)N[C@@H](C)C(=O)N1CCC[C@H]1C(=O)N[C@@H](CCC(=O)O)C(=O)N[C@@H](CCCCNC(=O)COCCOCCNC(=O)COCCOCCNC(=O)CC[C@H](NC(=O)CCCCCCCCCCCCCCCCC(=O)O)C(=O)O)C(=O)N1CCC[C@H]1C(=O)N[C@@H](CCC(=O)O)C(=O)N[C@@H](CCC(=O)O)C(=O)N[C@@H](CC(=O)O)C(=O)N[C@@H](C)C(=O)N[C@@H](CO)C(=O)N1CCC[C@H]1C(=O)N[C@@H](CCC(=O)O)C(=O)N[C@@H](C)C(=O)N[C@@H](CC(C)C)C(=O)N[C@@H](CCC(N)=O)C(=O)N[C@@H](CCCNC(=N)N)C(=O)N[C@@H](Cc1ccc(O)cc1)C(=O)N[C@@H](Cc1ccc(O)cc1)C(=O)N[C@H](C(=O)N[C@@H](CCC(=O)O)C(=O)N[C@@H](CC(C)C)C(=O)N[C@@H](CCCNC(=N)N)C(=O)N[C@@H](Cc1c[nH]cn1)C(=O)N[C@@H](Cc1ccc(O)cc1)C(=O)N[C@@H](Cc1ccc(O)cc1)C(=O)N[C@@H](CC(N)=O)C(=O)N[C@@H](Cc1c[nH]c2ccccc12)C(=O)N[C@@H](CC(C)C)C(=O)N[C@H](C(=O)N[C@@H](CCCNC(=N)N)C(=O)N[C@@H](CCC(N)=O)C(=O)N[C@@H](CCCNC(=N)N)C(=O)N[C@@H](Cc1ccc(O)cc1)C(N)=O)[C@@H](C)O)C(C)C
B4: Compound 196 (peptide)
peptide: Isovaleryl-APAK([AEEA-AEEA-γGlu-C18 diacid])PPEDAEPEELQRYYVSLRHYYNWLTRQRY-NH2
SMILES: CC(C)CC(=O)N[C@@H](C)C(=O)N1CCC[C@H]1C(=O)N[C@@H](C)C(=O)N[C@@H](CCCCNC(=O)COCCOCCNC(=O)COCCOCCNC(=O)CC[C@H](NC(=O)CCCCCCCCCCCCCCCCC(=O)O)C(=O)O)C(=O)N1CCC[C@H]1C(=O)N1CCC[C@H]1C(=O)N[C@@H](CCC(=O)O)C(=O)N[C@@H](CC(=O)O)C(=O)N[C@@H](C)C(=O)N[C@@H](CCC(=O)O)C(=O)N1CCC[C@H]1C(=O)N[C@@H](CCC(=O)O)C(=O)N[C@@H](CCC(=O)O)C(=O)N[C@@H](CC(C)C)C(=O)N[C@@H](CCC(N)=O)C(=O)N[C@@H](CCCNC(=N)N)C(=O)N[C@@H](Cc1ccc(O)cc1)C(=O)N[C@@H](Cc1ccc(O)cc1)C(=O)N[C@H](C(=O)N[C@@H](CO)C(=O)N[C@@H](CC(C)C)C(=O)N[C@@H](CCCNC(=N)N)C(=O)N[C@@H](Cc1c[nH]cn1)C(=O)N[C@@H](Cc1ccc(O)cc1)C(=O)N[C@@H](Cc1ccc(O)cc1)C(=O)N[C@@H](CC(N)=O)C(=O)N[C@@H](Cc1c[nH]c2ccccc12)C(=O)N[C@@H](CC(C)C)C(=O)N[C@H](C(=O)N[C@@H](CCCNC(=N)N)C(=O)N[C@@H](CCC(N)=O)C(=O)N[C@@H](CCCNC(=N)N)C(=O)N[C@@H](Cc1ccc(O)cc1)C(N)=O)[C@@H](C)O)C(C)C
B5: Compound 199 (peptide)
peptide: Isovaleryl-APEK([AEEA-AEEA-γGlu-C18 diacid])PEEDAEPEETQRYYVSLRHYYNWLTRQRY-NH2
SMILES: CC(C)CC(=O)N[C@@H](C)C(=O)N1CCC[C@H]1C(=O)N[C@@H](CCC(=O)O)C(=O)N[C@@H](CCCCNC(=O)COCCOCCNC(=O)COCCOCCNC(=O)CC[C@H](NC(=O)CCCCCCCCCCCCCCCCC(=O)O)C(=O)O)C(=O)N1CCC[C@H]1C(=O)N[C@@H](CCC(=O)O)C(=O)N[C@@H](CCC(=O)O)C(=O)N[C@@H](CC(=O)O)C(=O)N[C@@H](C)C(=O)N[C@@H](CCC(=O)O)C(=O)N1CCC[C@H]1C(=O)N[C@@H](CCC(=O)O)C(=O)N[C@@H](CCC(=O)O)C(=O)N[C@H](C(=O)N[C@@H](CCC(N)=O)C(=O)N[C@@H](CCCNC(=N)N)C(=O)N[C@@H](Cc1ccc(O)cc1)C(=O)N[C@@H](Cc1ccc(O)cc1)C(=O)N[C@H](C(=O)N[C@@H](CO)C(=O)N[C@@H](CC(C)C)C(=O)N[C@@H](CCCNC(=N)N)C(=O)N[C@@H](Cc1c[nH]cn1)C(=O)N[C@@H](Cc1ccc(O)cc1)C(=O)N[C@@H](Cc1ccc(O)cc1)C(=O)N[C@@H](CC(N)=O)C(=O)N[C@@H](Cc1c[nH]c2ccccc12)C(=O)N[C@@H](CC(C)C)C(=O)N[C@H](C(=O)N[C@@H](CCCNC(=N)N)C(=O)N[C@@H](CCC(N)=O)C(=O)N[C@@H](CCCNC(=N)N)C(=O)N[C@@H](Cc1ccc(O)cc1)C(N)=O)[C@@H](C)O)C(C)C)[C@@H](C)O

Biological target: T1, human neuropeptide Y2 receptor
Assay: radioligand competition (125I-PYY(1-36)), hNPY2R membranes
In short: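 Commercial human Y2 receptor membranes (0.5 μg protein/well) were incubated with peptide for 2 h at room temperature in 50 mM HEPES, 5 mM MgCl₂, 1 mM CaCl₂, pH 7.4, with 0.2% ovalbumin. Bound radioligand was separated on PEI-soaked GF/C filters and counted by scintillation, and IC₅₀ came from nonlinear sigmoidal regression.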

| Binder | Ki |
| --- | --- |
| B1 | 3.81 nM |
| B2 | 0.87 nM |
| B3 | 0.75 nM |
| B4 | 0.98 nM |
| B5 | 5.69 nM |
